For assay [1], the target named is T1, human recombinant RIPK3 (human, UniProt Q9Y572 1-518). Description: BLI; fit at 12 nM GADD45β. A general note: BLI is a label-free optical method that tracks binding on a fibre tip over time.
In assay [2] the target is T1, human recombinant RIPK3. Description: BLI; average.
Assay [3] deals with T1, human recombinant RIPK3. Description: BLI; fit at 100 nM GADD45β.
For assay [4], the target named is T1, human recombinant RIPK3. Description: BLI; fit at 6 nM GADD45β.
In assay [5] the target is T1, human recombinant RIPK3. Description: BLI; fit at 25 nM GADD45β.
Assay [6] concerns the target T1, human recombinant RIPK3. Briefly: BLI; fit at 3 nM GADD45β.
In assay [7] the target is T1, human recombinant RIPK3. Description: BLI; fit at 50 nM GADD45β.

The Kd is the concentration at which binding is half-saturated. What is called koff is the first-order rate constant of dissociation.

T1 sequence (Q9Y572 whole entry): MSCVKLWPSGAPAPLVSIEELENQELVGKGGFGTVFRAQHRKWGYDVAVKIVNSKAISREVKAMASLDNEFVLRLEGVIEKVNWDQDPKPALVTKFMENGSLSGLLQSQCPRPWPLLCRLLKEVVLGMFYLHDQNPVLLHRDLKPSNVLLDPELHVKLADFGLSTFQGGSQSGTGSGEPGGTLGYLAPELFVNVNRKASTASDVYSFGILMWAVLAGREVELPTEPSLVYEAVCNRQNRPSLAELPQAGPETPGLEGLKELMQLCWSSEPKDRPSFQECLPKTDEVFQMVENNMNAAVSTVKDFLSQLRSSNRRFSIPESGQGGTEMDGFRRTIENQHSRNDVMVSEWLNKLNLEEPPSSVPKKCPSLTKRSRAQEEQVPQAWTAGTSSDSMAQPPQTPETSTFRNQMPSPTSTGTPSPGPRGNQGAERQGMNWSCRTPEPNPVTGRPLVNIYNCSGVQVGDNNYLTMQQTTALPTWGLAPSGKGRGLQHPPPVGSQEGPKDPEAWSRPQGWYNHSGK

B1: recombinant human GADD45β (natural protein)
chain: MTLEELVACDNAAQKMQTVTAAVEELLVAAQRQDRLTVGVYESAKLMNVDPDSVVLCLLAIDEEEEDDIALQIHFTLIQSFCCDNDINIVRVSGMQRLAQLLGEPAETQGTTEARDLHCLLVTNPHTDAWKSHGLVEVASYCEESRGNNQWVPYISLQER
With B1, the Kd was 1.36 nM with human recombinant RIPK3 [1]; 3.49 nM in the assay with human recombinant RIPK3 [3]; 0.61 nM with human recombinant RIPK3 [4]; 1.96 nM with human recombinant RIPK3 [5]; 0.111 nM with human recombinant RIPK3 [6]; 2.85 nM with human recombinant RIPK3 [7]. Besides, the koff in the assay with human recombinant RIPK3 [2] is 0.000546 s⁻¹.

The record behind these values is publication PMC12827253 (2025).
